# Measured values published in the supplement of paper PMC7877785.
# ± gives the uncertainty stated by the source.
# Assay: self-splicing fitness, log relative to wild type (ln ratio); higher = more splicing; Tetrahymena group I intron in knt gene, E. coli kanamycin selection, DiMSum; sequences stand for … in CUCUCU…GGAGGGAAAAGUUAUCAGGCAUGCACCUGGUAGCUAGUCUUUAAACCAAUAGAUUGCAUCGGUUUAAAAGGCAAGACCGUCAAAUUGCGGGAAAGGGGUCAACAGCCGUUCAGUACCAAGUCUCAGGGGAAACUUUGAGAUGGCCUUGCAAAGGGUAUGGUAAUAAGCUGACGGACAUGGUCCUAACCACGCAGCCAAGUCCUAAGUCAACAGAUCUUCUGUUGAUAUGGAUGCAGUUCACAGACUAAAUGUCGGUCGGGGAAGAUGUAUUCUUCUCAUAAGAUAUAGUCGGACCUCUCCUUAAUGGGAGCUAGCGGAUGAAGUGAUGCAACACUGGAGCCGCUGGGAACUAAUUUGUAUGCGAAAGUAUAUUGAUUAGUUUUGGAGUACUCGUGGUCG
# How it was run: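 DiMSum derived fitness as the error-weighted combination of fold changes across replicates, kanamycin versus no kanamycin, normalised to wild type. E. coli BL21(DE3) held the library, which randomised all eight P1ex-region intron nucleotides within the knt kanamycin-resistance gene on pET-22b(+). Six replicate transformations grew overnight at 37°C or 30°C on LB agar with or without 25 μg/mL kanamycin, also containing 100 μg/mL carbenicillin, 50 μM IPTG and 0.2% rhamnose, and pooled colonies were amplicon-sequenced on an Illumina HiSeq 2500.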
Sequence,self-splicing fitness (ln) (30 °C),self-splicing fitness (ln) (37 °C)
CAAAAGCAAUAUUACGAGCU,-3.99 ± 0.21,-1.96 ± 0.13
CAAAAGCAAUAUUACGAGGG,-2.77 ± 0.14,-2.53 ± 0.21
CAAAAGCAAUAUUACGAGUC,-4.06 ± 0.24,-2.65 ± 0.25
CAAAAGCAAUAUUACGAUGC,-3.49 ± 0.19,-2.99 ± 0.32
CAAAAGCAAUAUUACGCCGU,-2.08 ± 0.16,-1.32 ± 0.18
CAAAAGCAAUAUUACGCUGU,-3.49 ± 0.25,-1.73 ± 0.18
CAAAAGCAAUAUUACGGAGA,-2.88 ± 0.28,-3.43 ± 0.3
CAAAAGCAAUAUUACGGCGA,-1.16 ± 0.11,-0.502 ± 0.098
CAAAAGCAAUAUUACGGUUA,-1.72 ± 0.1,-0.514 ± 0.083
CAAAAGCAAUAUUACGGUUG,-1.66 ± 0.11,-1.17 ± 0.14
CAAAAGCAAUAUUACGUAGU,-3.12 ± 0.12,-2.76 ± 0.18
CAAAAGCAAUAUUACGUAUA,-3 ± 0.15,-2.38 ± 0.17
CAAAAGCAAUAUUACGUCGA,-2.16 ± 0.086,-1.06 ± 0.084
CAAAAGCAAUAUUACGUGCC,-2.99 ± 0.24,-1.41 ± 0.23
CAACAGCAAUAUUACGAAGC,-3.45 ± 0.13,-2.74 ± 0.15
CAACAGCAAUAUUACGAAUA,-3.74 ± 0.28,-1.83 ± 0.2
CAACAGCAAUAUUACGACAA,-3.37 ± 0.21,-2.29 ± 0.14
CAACAGCAAUAUUACGACCC,-1.31 ± 0.13,-2.62 ± 0.33
CAACAGCAAUAUUACGAGUA,-1.85 ± 0.1,-1.04 ± 0.082
CAACAGCAAUAUUACGCAAC,-3.4 ± 0.23,-2.53 ± 0.33
CAACAGCAAUAUUACGCACG,-0.598 ± 0.067,0.246 ± 0.094
CAACAGCAAUAUUACGCAUC,-3.3 ± 0.16,-2.29 ± 0.14
CAACAGCAAUAUUACGCCAC,-3.26 ± 0.37,-2.39 ± 0.31
CAACAGCAAUAUUACGCCUA,-2.08 ± 0.12,-1.31 ± 0.11

Sequence,self-splicing fitness (ln) (30 °C),self-splicing fitness (ln) (37 °C)
CAACAGCAAUAUUACGCGUC,-3.55 ± 0.22,-1.98 ± 0.13
CAACAGCAAUAUUACGCUGC,-3.4 ± 0.23,-2.21 ± 0.36
CAACAGCAAUAUUACGCUUA,-2.13 ± 0.12,-0.653 ± 0.09
CAACAGCAAUAUUACGGAAC,-4.2 ± 0.28,-3.48 ± 0.23
CAACAGCAAUAUUACGGCCG,0.255 ± 0.072,0.563 ± 0.1
CAACAGCAAUAUUACGGGAA,-2.48 ± 0.16,-2.04 ± 0.14
CAACAGCAAUAUUACGGGGC,-3.71 ± 0.16,-3.4 ± 0.17
CAACAGCAAUAUUACGUACU,-1.89 ± 0.076,-0.917 ± 0.097
CAACAGCAAUAUUACGUAUG,-2.88 ± 0.12,-1.35 ± 0.1
CAACAGCAAUAUUACGUCCU,-2.08 ± 0.071,-1.6 ± 0.094
CAAGAGCAAUAUUACGAAGG,-2.06 ± 0.17,-0.821 ± 0.19
CAAGAGCAAUAUUACGACGG,-0.504 ± 0.087,0.00208 ± 0.14
CAAGAGCAAUAUUACGAGAG,-3.74 ± 0.16,-1.83 ± 0.13
CAAGAGCAAUAUUACGAUAA,-3.21 ± 0.22,-1.79 ± 0.18
CAAGAGCAAUAUUACGCCAC,-2.38 ± 0.36,–
CAAGAGCAAUAUUACGCGAA,-3.05 ± 0.26,-2.98 ± 0.4
CAAGAGCAAUAUUACGGAUA,-2.87 ± 0.23,-2.32 ± 0.29
CAAGAGCAAUAUUACGGCAU,-3.14 ± 0.23,-2.02 ± 0.21
CAAGAGCAAUAUUACGGCCA,-2.08 ± 0.38,-2.62 ± 0.48
CAAGAGCAAUAUUACGGCGG,-0.86 ± 0.069,-0.283 ± 0.094
CAAGAGCAAUAUUACGGCUA,-3.05 ± 0.31,-1.97 ± 0.22
CAAGAGCAAUAUUACGGUGA,-3.01 ± 0.2,-1.88 ± 0.21
CAAGAGCAAUAUUACGUAAG,-0.178 ± 0.084,-0.217 ± 0.12
CAAGAGCAAUAUUACGUAUC,-3.78 ± 0.17,-2.67 ± 0.2

Sequence,self-splicing fitness (ln) (30 °C),self-splicing fitness (ln) (37 °C)
CAAGAGCAAUAUUACGUCAU,-4.3 ± 0.24,-3.57 ± 0.17
CAAGAGCAAUAUUACGUGGG,-3.54 ± 0.21,-2.64 ± 0.19
CAAGAGCAAUAUUACGUGUG,-2.56 ± 0.1,-1.5 ± 0.092
CAAGAGCAAUAUUACGUUAU,-4.08 ± 0.19,-2.78 ± 0.17
CAAGAGCAAUAUUACGUUCG,-1.27 ± 0.089,-0.199 ± 0.11
CAAUAGCAAUAUUACGCACA,-2.3 ± 0.12,-1.4 ± 0.12
CAAUAGCAAUAUUACGCAUA,-2.99 ± 0.18,-2.08 ± 0.18
CAAUAGCAAUAUUACGCAUG,-1.35 ± 0.091,-0.845 ± 0.11
CAAUAGCAAUAUUACGCGAU,-3.99 ± 0.23,-2.92 ± 0.29
CAAUAGCAAUAUUACGCUAG,-2.49 ± 0.15,-1.86 ± 0.19
CAAUAGCAAUAUUACGGAAA,-3.49 ± 0.19,-2.83 ± 0.32
CAAUAGCAAUAUUACGGCUC,-1.08 ± 0.15,-0.901 ± 0.23
CAAUAGCAAUAUUACGGGCU,-3.42 ± 0.16,-1.4 ± 0.12
CAAUAGCAAUAUUACGGGUC,-3.28 ± 0.34,-2.4 ± 0.48
CAAUAGCAAUAUUACGUAAU,-3.35 ± 0.21,-1.92 ± 0.18
CAAUAGCAAUAUUACGUCAG,-1.95 ± 0.066,-1.12 ± 0.07
CAAUAGCAAUAUUACGUGAU,-3.98 ± 0.14,-2.5 ± 0.12
CACAAGCAAUAUUACGAAAC,–,-1.91 ± 0.25
CACAAGCAAUAUUACGAACC,-2.66 ± 0.47,-1.98 ± 0.36
CACAAGCAAUAUUACGACUG,-0.95 ± 0.046,0.337 ± 0.064
CACAAGCAAUAUUACGAGGC,-3.54 ± 0.16,-2.87 ± 0.19
CACAAGCAAUAUUACGCCCG,-0.276 ± 0.12,0.193 ± 0.15
CACAAGCAAUAUUACGCCUG,-1.87 ± 0.16,-0.812 ± 0.19
CACAAGCAAUAUUACGGAUU,-3.91 ± 0.2,-2.61 ± 0.2

Sequence,self-splicing fitness (ln) (30 °C),self-splicing fitness (ln) (37 °C)
CACAAGCAAUAUUACGGCCG,-0.104 ± 0.077,0.524 ± 0.1
CACAAGCAAUAUUACGGGUA,-1.26 ± 0.07,-0.601 ± 0.076
CACAAGCAAUAUUACGGGUG,-3.99 ± 0.1,-2.94 ± 0.11
CACAAGCAAUAUUACGGUAU,-3.8 ± 0.14,-2.35 ± 0.12
CACAAGCAAUAUUACGUGAC,-4.87 ± 0.34,-2.77 ± 0.2
CACAAGCAAUAUUACGUGCC,-3.26 ± 0.14,-2.48 ± 0.14
CACAAGCAAUAUUACGUGUA,-3.53 ± 0.13,-1.78 ± 0.093
CACAAGCAAUAUUACGUUUG,-2.89 ± 0.078,-2.14 ± 0.089
CACCAGCAAUAUUACGAAUC,-4.57 ± 0.31,-0.445 ± 0.18
CACCAGCAAUAUUACGAGUC,-4.09 ± 0.19,-1.74 ± 0.14
CACCAGCAAUAUUACGAGUU,-2.42 ± 0.075,-1.65 ± 0.087
CACCAGCAAUAUUACGCAAC,-2.68 ± 0.48,-2.85 ± 0.28
CACCAGCAAUAUUACGCACU,-3.96 ± 0.21,-1.59 ± 0.12
CACCAGCAAUAUUACGCAUG,-1.29 ± 0.062,-0.787 ± 0.07
CACCAGCAAUAUUACGCGCG,-0.00123 ± 0.053,0.499 ± 0.069
CACCAGCAAUAUUACGCGGA,-2.85 ± 0.15,-0.595 ± 0.088
CACCAGCAAUAUUACGCGGC,-2.68 ± 0.21,-2.72 ± 0.29
CACCAGCAAUAUUACGCUAC,-5.01 ± 0.45,-2.1 ± 0.16
CACCAGCAAUAUUACGGAUG,-3.11 ± 0.12,-1.84 ± 0.12
CACCAGCAAUAUUACGGAUU,-2.05 ± 0.055,-1.36 ± 0.085
CACCAGCAAUAUUACGGCGA,-1.62 ± 0.061,-1.23 ± 0.063
CACCAGCAAUAUUACGGCGC,-2.3 ± 0.11,-1.5 ± 0.13
CACCAGCAAUAUUACGUACU,-3.08 ± 0.2,-2.21 ± 0.2
